The values below come from patent US20070093443A1.

The target in the assay is T1, alpha-2 macroglobulin (in human plasma) (human) (UniProt P01023).
T1 sequence (looked up): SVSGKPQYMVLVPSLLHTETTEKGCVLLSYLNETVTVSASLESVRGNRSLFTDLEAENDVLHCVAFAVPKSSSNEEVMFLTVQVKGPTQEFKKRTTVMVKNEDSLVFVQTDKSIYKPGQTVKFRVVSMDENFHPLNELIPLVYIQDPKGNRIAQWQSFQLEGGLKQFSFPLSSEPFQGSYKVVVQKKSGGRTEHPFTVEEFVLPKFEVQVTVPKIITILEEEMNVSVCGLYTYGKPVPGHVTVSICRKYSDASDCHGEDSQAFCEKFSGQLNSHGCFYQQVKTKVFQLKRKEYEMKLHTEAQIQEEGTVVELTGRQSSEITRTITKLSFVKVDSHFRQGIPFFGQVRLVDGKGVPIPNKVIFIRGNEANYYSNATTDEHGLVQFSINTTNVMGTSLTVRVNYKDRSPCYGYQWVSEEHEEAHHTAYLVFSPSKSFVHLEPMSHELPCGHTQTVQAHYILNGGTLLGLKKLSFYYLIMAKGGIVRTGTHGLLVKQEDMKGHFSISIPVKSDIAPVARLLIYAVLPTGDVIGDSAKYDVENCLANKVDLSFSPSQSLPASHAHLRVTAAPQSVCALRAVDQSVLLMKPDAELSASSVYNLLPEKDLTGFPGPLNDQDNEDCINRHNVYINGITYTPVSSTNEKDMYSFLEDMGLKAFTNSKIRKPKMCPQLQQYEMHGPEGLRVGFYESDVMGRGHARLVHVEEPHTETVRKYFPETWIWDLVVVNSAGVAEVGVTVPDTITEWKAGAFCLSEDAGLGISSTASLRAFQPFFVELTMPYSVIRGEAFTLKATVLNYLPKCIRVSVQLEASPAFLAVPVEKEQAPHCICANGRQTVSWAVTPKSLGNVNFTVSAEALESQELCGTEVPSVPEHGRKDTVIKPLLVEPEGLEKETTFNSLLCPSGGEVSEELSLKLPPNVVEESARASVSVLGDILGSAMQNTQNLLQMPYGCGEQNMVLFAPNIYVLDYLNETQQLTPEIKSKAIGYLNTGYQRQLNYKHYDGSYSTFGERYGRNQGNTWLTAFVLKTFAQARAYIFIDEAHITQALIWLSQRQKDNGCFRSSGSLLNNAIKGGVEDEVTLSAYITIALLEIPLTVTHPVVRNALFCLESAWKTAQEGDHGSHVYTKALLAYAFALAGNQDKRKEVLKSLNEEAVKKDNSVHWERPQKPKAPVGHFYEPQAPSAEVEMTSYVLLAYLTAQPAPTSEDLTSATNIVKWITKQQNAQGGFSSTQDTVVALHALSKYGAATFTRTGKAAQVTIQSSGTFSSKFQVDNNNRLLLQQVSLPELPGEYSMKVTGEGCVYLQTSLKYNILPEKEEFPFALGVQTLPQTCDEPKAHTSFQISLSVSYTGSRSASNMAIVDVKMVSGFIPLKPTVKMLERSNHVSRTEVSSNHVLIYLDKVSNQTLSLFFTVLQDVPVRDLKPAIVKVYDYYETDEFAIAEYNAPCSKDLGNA
Nature of the assay: Ac-RQAR-AMC activity of protease after 5 min in human citrated plasma, with and without M84R ecotin.

B1: modified MT-SP1 CB484 (I41T/Y146E/Q175D/K224F) protease domain (enzyme)
chain: VVGGTDADEGEWPWQVSLHALGQGHTCGASLISPNWLVSAAHCYIDDRGFRYSDPTQWTAFLGLHDQSQRSAPGVQERRLKRIISHPFFNDFTFDYDIALLELEKPAEYSSMVRPICLPDASHVFPAGKAIWVTGWGHTQEGGTGALILQKGEIRVINQTTCENLLPQDITPRMMCVGFLSGGVDSCQGDSGGPLSSVEADGRIFQAGVVSWGDGCAQRNFPGVYTRLPLFRDWIKENTGV
For the molecule B1, the % Unbound by a2M is 94%.
